The values below come from paper doi:10.1101/591909.

The target in the test is AP2M (UniProt P84091). Briefly: cell-free ELISA, antibody-captured AP2M, biotinylated peptide. The note with it: reference: unphosphorylated control peptide; sites Y816. (In general: In an ELISA, binding on a coated surface is turned into a signal by an enzyme label.)

On to “TRKB (C-terminal peptide) C-terminus, last 26 aa (from UniProt Q63604) pY816 peptide”, for which the “binding against the reference” value is “stronger”.
